# Reference: paper PMC9719539 (2022)
# Where two headings read alike, the source gives them in different places. Positions of bridges follow the written chain, without caps; N, C: chain ends. Non-standard residues stand in square brackets, D forms with d. No end group written: not given here.
# B1: integrin αVβ3 on intact cells (receptor)
# chain 1: FNLDVDSPAEYSGPEGSYFGFAVDFFVPSASSRMFLLVGAPKANTTQPGIVEGGQVLKCDWSSTRRCQPIEFDATGNRDYAKDDPLEFKSHQWFGASVRSKQDKILACAPLYHWRTEMKQEREPVGTCFLQDGTKTVEYAPCRSQDIDADGQGFCQGGFSIDFTKADRVLLGGPGSFYWQGQLISDQVAEIVSKYDPNVYSIKYNNQLATRTAQAIFDDSYLGYSVAVGDFNGDGIDDFVSGVPRAARTLGMVYIYDGKNMSSLYNFTGEQMAAYFGFSVAATDINGDDYADVFIGAPLFMDRGSDGKLQEVGQVSVSLQRASGDFQTTKLNGFEVFARFGSAIAPLGDLDQDGFNDIAIAAPYGGEDKKGIVYIFNGRSTGLNAVPSQILEGQWAARSMPPSFGYSMKGATDIDKNGYPDLIVGAFGVDRAILYRARPVITVNAGLEVYPSILNQDNKTCSLPGTALKVSCFNVRFCLKADGKGVLPRKLNFQVELLLDKLKQKGAIRRALFLYSRSPSHSKNMTISRGGLMQCEELIAYLRDESEFRDKLTPITIFMEYRLDYRTAADTTGLQPILNQFTPANISRQAHILLDCGEDNVCKPKLEVSVDSDQKKIYIGDDNPLTLIVKAQNQGEGAYEAELIVSIPLQADFIGVVRNNEALARLSCAFKTENQTRQVVCDLGNPMKAGTQLLAGLRFSVHQQSEMDTSVKFDLQIQSSNLFDKVSPVVSHKVDLAVLAAVEIRGVSSPDHVFLPIPNWEHKENPETEEDVGPVVQHIYELRNNGPSSFSKAMLHLQWPYKYNNNTLLYILHYDIDGPMNCTSDMEINPLRIKISSLQTTEKNDTVAGQGERDHLITKRDLALSEGDIHTLGCGVAQCLKIVCQVGRLDRGKSAILYVKSLLWTETFMNKENQNHSYSLKSSASFNVIEFPYKNLPIEDITNSTLVTTNVTWGIQPAPMPVPVWVIILAVLAGLLLLAVLVFVMYRMGFFKRVRPPQEEQEREQLQPHENGEGNSET
# chain 2: GPNICTTRGVSSCQQCLAVSPMCAWCSDEALPLGSPRCDLKENLLKDNCAPESIEFPVSEARVLEDRPLSDKGSGDSSQVTQVSPQRIALRLRPDDSKNFSIQVRQVEDYPVDIYYLMDLSYSMKDDLWSIQNLGTKLATQMRKLTSNLRIGFGAFVDKPVSPYMYISPPEALENPCYDMKTTCLPMFGYKHVLTLTDQVTRFNEEVKKQSVSRNRDAPEGGFDAIMQATVCDEKIGWRNDASHLLVFTTDAKTHIALDGRLAGIVQPNDGQCHVGSDNHYSASTTMDYPSLGLMTEKLSQKNINLIFAVTENVVNLYQNYSELIPGTTVGVLSMDSSNVLQLIVDAYGKIRSKVELEVRDLPEELSLSFNATCLNNEVIPGLKSCMGLKIGDTVSFSIEAKVRGCPQEKEKSFTIKPVGFKDSLIVQVTFDCDCACQAQAEPNSHRCNNGNGTFECGVCRCGPGWLGSQCECSEEDYRPSQQDECSPREGQPVCSQRGECLCGQCVCHSSDFGKITGKYCECDDFSCVRYKGEMCSGHGQCSCGDCLCDSDWTGYYCNCTTRTDTCMSSNGLLCSGRGKCECGSCVCIQPGSYGDTCEKCPTCPDACTFKKECVECKKFDRGALHDENTCNRYCRDEIESVKELKDTGKDAVNCTYKNEDDCVVRFQYYEDSSGKSILYVVEEPECPKGPDILVVLLSVMGAILLIGLAALLIWKLLITIHDRKEFAKFEEERARAKWDTANNPLYKEATSTFTNITYRGT
# Legend:
# [1] = biological target: T1, integrin α5β1 on intact cells (human, UniProt P08648 42-1049; P05556 21-798); assay: FACS
# IPI-αVβ3.13 [2] = assay: FACS; L15 + 1 mM Mn2+
# IPI-αVβ5.9 [3] = assay: FACS; L15 + 1 mM Mn2+
# IPI-αVβ3.13 [4] = assay: FACS; L15 medium
# IPI-αVβ5.9 [5] = assay: FACS; L15 medium
# [6] = biological target: T1, integrin α5β1 on intact cells; assay: FACS; remark: listed apart in the source
# [7] = biological target: B1; assay: FACS
# [8] = biological target: integrin αVβ1 on intact cells (human, UniProt P06756 31-1048; P05556 21-798); assay: FACS
# Chain of integrin αVβ1 on intact cells (P05556 21-798, one chain of several): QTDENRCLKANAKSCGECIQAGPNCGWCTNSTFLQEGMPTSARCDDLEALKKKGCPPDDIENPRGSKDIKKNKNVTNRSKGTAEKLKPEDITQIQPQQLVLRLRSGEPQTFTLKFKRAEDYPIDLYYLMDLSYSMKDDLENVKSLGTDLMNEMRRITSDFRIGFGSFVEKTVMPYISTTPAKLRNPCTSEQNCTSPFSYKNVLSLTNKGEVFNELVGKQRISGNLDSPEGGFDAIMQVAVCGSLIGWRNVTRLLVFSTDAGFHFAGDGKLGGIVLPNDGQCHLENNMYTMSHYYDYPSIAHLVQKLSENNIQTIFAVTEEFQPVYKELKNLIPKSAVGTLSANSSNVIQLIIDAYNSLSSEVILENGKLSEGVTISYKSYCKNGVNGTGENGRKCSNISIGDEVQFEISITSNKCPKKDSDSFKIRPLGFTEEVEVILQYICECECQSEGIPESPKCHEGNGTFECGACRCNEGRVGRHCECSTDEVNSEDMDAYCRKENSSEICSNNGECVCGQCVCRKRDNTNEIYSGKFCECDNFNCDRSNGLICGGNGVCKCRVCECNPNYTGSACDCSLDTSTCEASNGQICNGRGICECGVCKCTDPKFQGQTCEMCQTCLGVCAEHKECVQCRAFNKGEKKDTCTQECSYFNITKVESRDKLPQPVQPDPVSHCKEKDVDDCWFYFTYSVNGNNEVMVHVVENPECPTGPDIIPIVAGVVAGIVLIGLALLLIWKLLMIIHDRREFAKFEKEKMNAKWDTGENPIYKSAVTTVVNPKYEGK
# T1 sequence (P08648 42-1049, chain 1 of 2): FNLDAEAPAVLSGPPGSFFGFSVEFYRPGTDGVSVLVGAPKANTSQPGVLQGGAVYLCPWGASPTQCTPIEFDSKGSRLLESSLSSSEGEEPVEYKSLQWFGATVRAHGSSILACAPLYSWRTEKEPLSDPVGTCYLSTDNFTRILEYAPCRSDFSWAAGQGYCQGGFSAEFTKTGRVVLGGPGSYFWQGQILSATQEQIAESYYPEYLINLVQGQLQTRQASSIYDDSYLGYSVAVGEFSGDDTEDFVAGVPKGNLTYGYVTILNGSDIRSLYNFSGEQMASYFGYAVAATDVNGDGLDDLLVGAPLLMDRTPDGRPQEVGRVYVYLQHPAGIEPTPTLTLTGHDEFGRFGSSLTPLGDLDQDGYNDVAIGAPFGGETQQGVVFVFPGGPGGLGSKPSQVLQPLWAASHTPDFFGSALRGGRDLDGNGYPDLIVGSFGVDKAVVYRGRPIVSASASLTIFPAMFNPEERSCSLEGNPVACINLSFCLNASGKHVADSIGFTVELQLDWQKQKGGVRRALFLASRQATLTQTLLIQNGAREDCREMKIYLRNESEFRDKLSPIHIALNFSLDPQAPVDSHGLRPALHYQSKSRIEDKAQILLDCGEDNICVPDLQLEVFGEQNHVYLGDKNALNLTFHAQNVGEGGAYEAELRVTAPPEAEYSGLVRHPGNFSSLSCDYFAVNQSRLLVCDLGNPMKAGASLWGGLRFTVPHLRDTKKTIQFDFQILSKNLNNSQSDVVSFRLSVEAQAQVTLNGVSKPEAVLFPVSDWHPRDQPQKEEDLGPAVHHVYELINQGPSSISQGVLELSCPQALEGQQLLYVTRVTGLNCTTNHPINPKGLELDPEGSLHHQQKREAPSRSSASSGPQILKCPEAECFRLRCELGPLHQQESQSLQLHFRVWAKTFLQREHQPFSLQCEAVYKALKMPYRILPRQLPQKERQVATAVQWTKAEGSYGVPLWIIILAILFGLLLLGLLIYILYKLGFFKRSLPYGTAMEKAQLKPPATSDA
# T1 sequence (P05556 21-798, chain 2 of 2): as the sequence (P05556 21-798, one chain of several) above
Binder,Kd (IPI-αVβ3.13 [2]) [nM],Kd (IPI-αVβ5.9 [3]) [nM],Kd (IPI-αVβ5.9 [5]) [nM],other results
cyclo(RGD[dF]K) [cyclo[Arg-Gly-Asp-D-Phe-Lys] (cRGDfK)],,,,Kd [1]: 86 nM
B1,23,16000,10000,Kd (IPI-αVβ3.13 [4]): 56 nM
ACRGDGWCGK (disulfide 2-8 (inferred)) [cyclic-ACRGDGWCGK],,,,Kd [6]: 3700 nM
"Biogen-αVβ1.5 Fab (Fab, V domains shown) VH: EVQLVESGGGVVQPGRSLRLSCAASGFTFKYYGMHWVRQAPGKGLEWVASIWYDGSNKKYADSVKGRFTISRDNSKNTLYLQMNSLRAEDTAVYYCARGGPTRGDGTRVYYYGMDVWGQGTTVTVSS VL: EIVMTQSPATLSVSPGERATLSCRASQSVSSNLAWYQQKPGQAPRLLIYSASTRATGIPARFSGSGSGTEFTLTISSLQSEDFAVYYCQQYYHHPFTFGGGTKVEIK",,,,Kd [7]: 78000 nM; Kd [8]: 24 nM
integrin αVβ5 on intact cells (receptor) chain 1: FNLDVDSPAEYSGPEGSYFGFAVDFFVPSASSRMFLLVGAPKANTTQPGIVEGGQVLKCDWSSTRRCQPIEFDATGNRDYAKDDPLEFKSHQWFGASVRSKQDKILACAPLYHWRTEMKQEREPVGTCFLQDGTKTVEYAPCRSQDIDADGQGFCQGGFSIDFTKADRVLLGGPGSFYWQGQLISDQVAEIVSKYDPNVYSIKYNNQLATRTAQAIFDDSYLGYSVAVGDFNGDGIDDFVSGVPRAARTLGMVYIYDGKNMSSLYNFTGEQMAAYFGFSVAATDINGDDYADVFIGAPLFMDRGSDGKLQEVGQVSVSLQRASGDFQTTKLNGFEVFARFGSAIAPLGDLDQDGFNDIAIAAPYGGEDKKGIVYIFNGRSTGLNAVPSQILEGQWAARSMPPSFGYSMKGATDIDKNGYPDLIVGAFGVDRAILYRARPVITVNAGLEVYPSILNQDNKTCSLPGTALKVSCFNVRFCLKADGKGVLPRKLNFQVELLLDKLKQKGAIRRALFLYSRSPSHSKNMTISRGGLMQCEELIAYLRDESEFRDKLTPITIFMEYRLDYRTAADTTGLQPILNQFTPANISRQAHILLDCGEDNVCKPKLEVSVDSDQKKIYIGDDNPLTLIVKAQNQGEGAYEAELIVSIPLQADFIGVVRNNEALARLSCAFKTENQTRQVVCDLGNPMKAGTQLLAGLRFSVHQQSEMDTSVKFDLQIQSSNLFDKVSPVVSHKVDLAVLAAVEIRGVSSPDHVFLPIPNWEHKENPETEEDVGPVVQHIYELRNNGPSSFSKAMLHLQWPYKYNNNTLLYILHYDIDGPMNCTSDMEINPLRIKISSLQTTEKNDTVAGQGERDHLITKRDLALSEGDIHTLGCGVAQCLKIVCQVGRLDRGKSAILYVKSLLWTETFMNKENQNHSYSLKSSASFNVIEFPYKNLPIEDITNSTLVTTNVTWGIQPAPMPVPVWVIILAVLAGLLLLAVLVFVMYRMGFFKRVRPPQEEQEREQLQPHENGEGNSET chain 2: GLNICTSGSATSCEECLLIHPKCAWCSKEDFGSPRSITSRCDLRANLVKNGCGGEIESPASSFHVLRSLPLSSKGSGSAGWDVIQMTPQEIAVNLRPGDKTTFQLQVRQVEDYPVDLYYLMDLSLSMKDDLDNIRSLGTKLAEEMRKLTSNFRLGFGSFVDKDISPFSYTAPRYQTNPCIGYKLFPNCVPSFGFRHLLPLTDRVDSFNEEVRKQRVSRNRDAPEGGFDAVLQAAVCKEKIGWRKDALHLLVFTTDDVPHIALDGKLGGLVQPHDGQCHLNEANEYTASNQMDYPSLALLGEKLAENNINLIFAVTKNHYMLYKNFTALIPGTTVEILDGDSKNIIQLIINAYNSIRSKVELSVWDQPEDLNLFFTATCQDGVSYPGQRKCEGLKIGDTASFEVSLEARSCPSRHTEHVFALRPVGFRDSLEVGVTYNCTCGCSVGLEPNSARCNGSGTYVCGLCECSPGYLGTRCECQDGENQSVYQNLCREAEGKPLCSGRGDCSCNQCSCFESEFGKIYGPFCECDNFSCARNKGVLCSGHGECHCGECKCHAGYIGDNCNCSTDISTCRGRDGQICSERGHCLCGQCQCTEPGAFGEMCEKCPTCPDACSTKRDCVECLLLHSGKPDNQTCHSLCRDEVITWVDTIVKDDQEAVLCFYKTAKDCVMMFTYVELPSGKSNLTVLREPECGNTPNAMTILLAVVGSILLVGLALLAIWKLLVTIHDRREFAKFQSERSRARYEMASNPLYRKPISTHTVDFTFNKFNKSYNGTVD,50000,24,43,
